Assay results published in patent US5565354 (Sandoz Ltd., dated 1996).

Legend:
[1] = biological target: hepatitis B surface antigen (HBsAg), preparation and subtype not stated (hepatitis B virus); test: AUSAB radioimmunoassay (Abbott), compared on a weight basis
[2] = biological target: HBsAg of control HBsAg-positive serum (hepatitis B virus); test: sandwich RIA, PE1-1 solid-adsorbed and ZM1-2 125I-labelled; the control itself
[3] = biological target: serum-derived variant HBsAg of Patient #2 (hepatitis B virus); test: sandwich RIA, PE1-1 solid-adsorbed and ZM1-2 125I-labelled, patient serum HBsAg
[4] = biological target: serum-derived variant HBsAg, sample 'Patient #3 (264)' (hepatitis B virus); test: as above
[5] = biological target: serum-derived variant HBsAg, sample 'Patient #4 (251)' (hepatitis B virus); test: as above
HBsAg subtype ayw [6] = biological target: T1, HBsAg subtype ayw (hepatitis B virus, UniProt P03138); test: solid phase RIA, 125I-labelled antibody on solid adsorbed HBsAg ayw, room temperature
HBsAg subtype ayw [7] = biological target: T1, HBsAg subtype ayw; test: inhibition ELISA, soluble HBsAg ayw pre-incubated with antibody, HBsAg-coated well, 37 C
[8] = biological target: HBsAg in serum from a hepatitis B positive patient (hepatitis B virus)
[9] = biological target: HBsAg of control HBsAg-positive serum (hepatitis B virus); test: sandwich RIA, solid-adsorbed and 125I-labelled ZM1-2; the control itself
[10] = biological target: serum-derived variant HBsAg of Patient #2 (hepatitis B virus); test: sandwich RIA, solid-adsorbed and 125I-labelled ZM1-2, patient serum HBsAg
[11] = biological target: serum-derived variant HBsAg, sample 'Patient #3 (264)' (hepatitis B virus); test: as above
[12] = biological target: serum-derived variant HBsAg, sample 'Patient #4 (251)' (hepatitis B virus); test: as above

| Binder | potency relative to the Bureau of Biologics reference hepatitis B immune globin [1] | potency relative to the commercial hepatitis B immune globulin preparations [1] | relative reactivity (relative to control) [2] | relative reactivity (relative to control) [3] | relative reactivity (relative to control) [4] | relative reactivity (relative to control) [5] | Ka (HBsAg subtype ayw [6]) | Ka (HBsAg subtype ayw [7]) | IC50 [8] | relative reactivity (relative to control) [9] | relative reactivity (relative to control) [10] | relative reactivity (relative to control) [11] | relative reactivity (relative to control) [12] |
| --- | --- | --- | --- | --- | --- | --- | --- | --- | --- | --- | --- | --- | --- |
| human monoclonal antibody PE1-1 (antibody, V domains shown) VH: QVQLVESGGGVVQPGRSLRLSCAASGFTFSRYGMHWVRQAPGKGLEWVAVISYDGSNKWYADSVKGRFTISRDNSKNTLFLQMHSLRAADTGVYYCAKDQLYFGSQSPGHYWVQGTLVTVSS VL: QSQLTQPPSVSVAPGQTARITCGGDNIGSKSVNWFQQKPGQAPVLVVYDDNERPSGISERFSGSNSGNTATLTISRVEAGDEADYYCQVWDSSSDHVVFGGGTKLTVL | 435 times | > 200 times | 1 | 0.07 | 0.173 | 0.024 | 3.6e+09 M⁻¹ | ~2e+09 M⁻¹ | – | – | – | – | – |
| human monoclonal antibody ZM1-2 (antibody, V domains shown) VH: QVQLQESGPGLVKAAETLSLTCTVSRGSFSDYFWNWFRQPAGKRLEWLGRVYTSGSVDYNPSLKSRVTVSVDTSKKQFSLRLSSVTVADTAVYYCARGLSGFDYWGQGALVTVSP VL: DIQMTQSPSSVSASVGDRVTVTCRASQGISSWLAWYQQKPGKAPKLLIHAASSLQSGVPSRFIGSGSGTDFTLTITSLQAEDFATYYCQQADSLPFTFGGGTKVDFKR | – | – | – | – | – | – | 1.5e+09 M⁻¹ | ~7e+08 M⁻¹ | 0.076 µg/mL | 1 | 0.233 | 0.179 | 0.01 |
| human monoclonal antibody ZM1-1 (antibody, V domains shown) VH: EVQLVESGGGLVQPGGSLRLSCAASGFTFSRYDMYWVRQATGKGLEWVSAIGPTGDTYYADSVKGRFTISRENAKNSLYLTMNGLRAGDTAVYYCARDLELWGQGTLVTVSS VL: DVVVTQSPLSLPVTLGQPASISCRSSLSLVDSDGNTYLNWFLQRPGQSPRRLIYQLSSRDSGVPDRFSGSGSGTDFTLKISRVEAEDVGVYYCMQGTHWPITFGQGTRLEIKR | – | – | – | – | – | – | 5e+09 M⁻¹ | ~1e+08 M⁻¹ | – | – | – | – | – |
